Measurements as given in patent publication US20250304624A1 (published 2025).
Positions of bridges follow the written chain, without caps; N, C: chain ends. Non-standard residues stand in square brackets, D forms with d. Groups on a side chain read outwards from the residue. *: point of attachment. PEG12 = NCCOCCOCCOCCOCCOCCOCCOCCOCCOCCOCCOCCOCCC(=O)O; Dip = N[C@H](C(=O)O)C(c1ccccc1)c1ccccc1; Palmitoyl = CCCCCCCCCCCCCCCC(=O)*; Isovaleryl = CC(C)CC(=O)*

Target: T1, human ferroportin (SLC40A1) fused in frame with GFP, stably expressed in HEK293 cells (human, UniProt Q9NP59 1-571)
T1 sequence (looked up): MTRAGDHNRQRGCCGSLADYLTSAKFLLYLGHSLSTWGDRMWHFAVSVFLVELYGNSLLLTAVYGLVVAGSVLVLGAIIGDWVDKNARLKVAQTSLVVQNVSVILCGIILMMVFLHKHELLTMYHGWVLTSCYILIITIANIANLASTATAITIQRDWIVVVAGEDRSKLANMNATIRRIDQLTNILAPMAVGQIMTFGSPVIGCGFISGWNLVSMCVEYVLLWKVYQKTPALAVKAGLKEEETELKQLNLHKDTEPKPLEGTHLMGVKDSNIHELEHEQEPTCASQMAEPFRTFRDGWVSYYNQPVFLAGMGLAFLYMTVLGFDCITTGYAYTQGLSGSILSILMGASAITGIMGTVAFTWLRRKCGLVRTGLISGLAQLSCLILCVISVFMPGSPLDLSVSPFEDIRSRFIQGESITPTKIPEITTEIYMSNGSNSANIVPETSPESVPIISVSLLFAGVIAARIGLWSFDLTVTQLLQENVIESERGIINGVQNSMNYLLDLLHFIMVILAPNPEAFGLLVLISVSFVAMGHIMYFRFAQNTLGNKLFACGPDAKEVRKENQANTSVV
Assay: cell-based or functional assay

In the case of Isovaleryl-DIH[Dip]PCI[dK]FK([PEG12-Palmitoyl])[dK]C-NH2 (disulfide 6-12 (inferred)) [Compd ID 130], the “FPN IC50” value is reported as 69 nM.
